Where a chain is given by its changes, count along the chain named. Read-outs that look alike come from different tables or passages of the source. Non-standard residues stand in square brackets, D forms with d. Residues, ends and D or L forms follow the SMILES beside them. No end group written: not given here. Abu = CC[C@H](N)C(=O)O
Assays:
[1] = target: T1, elastase (Boehringer, 1027891) (Sus scrofa, UniProt P00772); test: Elastase inhibition assay (chromogenic substrate SAAAP, 405 nm); type: biochemical; conditions: for inhibition of elastase activity: SAAAP substrate, 25° C., 30 minutes; for specific (elastase) activity: IU = quantity reducing hydrolysis of SAAAP with 1 μmol/min at pH 8.3 and 25° C.
T1 construct: purchased Boehringer 1027891
T1 sequence (P00772 27-266): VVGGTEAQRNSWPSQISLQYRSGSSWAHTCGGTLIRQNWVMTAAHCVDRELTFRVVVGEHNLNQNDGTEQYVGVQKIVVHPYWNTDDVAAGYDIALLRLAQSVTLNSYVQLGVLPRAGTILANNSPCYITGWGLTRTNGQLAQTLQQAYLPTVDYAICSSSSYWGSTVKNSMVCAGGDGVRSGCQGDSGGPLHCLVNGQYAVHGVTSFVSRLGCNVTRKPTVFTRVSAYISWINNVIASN
Experimental: 2. Prior lyophilized base material underwent solubility tests after resuspension of the base material in 1) 0.1M Acetic Acid, 2) 50% Acetic Acid and 3) 0.1M Ammoniumbicarbonate and after centrifugation of the various suspensions, supernatants and pellets (after resuspension). Thereafter these were tested on the presence of protein by analytical sequence analysis (Edman degradation with automated sequenator Applied Biosystems, Model 477A) (Edman, 1956; Ilse & Edman, 1963), by applying protocolls, reagentia, chemicals and materials from Applied Biosystems (Warrington, UK and Foster City, Calif., USA) (Hewick, et al, 1981).It was investigated if biologic activity included anti-elastase as the described "auto-antibiotic effect" of A. hydrophila. Therefore, tests on inhibition of elastase activity were executed with dried samples of 20 μl of supernatant and resuspension of pellet of the base material on elastase (Boehringer) and SAAAP (Fluka) as chromogenic substrate, and 0.1 M Tris/HCl pH 8.2 as assay buffer. Based on the results obtained with the different solutions, and the inhibition of elastase, it was decided to use 0.1 M Hac as solution for the lyophilized base material and thereafter as eluens for gel filtration.
The principle of the assay resides in inhibition of elastase (Boehringer, 1027891) activity on the chromogenic substrate SAAAP (Fluka, nr. 85975) as measured at 405 nm spectophotometrically by monitoring release of the p-nitro-aniline group during substrate digestion.
Assay buffer: 0.1M Tris/HCl pH 8.2, 1M NaCl.
Elastase: 40 μg/ml in H2 O.
Substrate: 1.0 mM SAAAP in H2 O.
Glacial Acetic Acid 50%: diluted in H2 O.
Reaction in tubes (Eppendorf), containing 100 μl assay buffer, 50 μl sample elastase inhibitor, 50 μl elastase solution was started by addition of SAAAP (25 μl, 1 mM) and incubated at 25° C. for 30 minutes. Thereafter the reaction was stopped by addition of 25 μl 50% Glacial Acetic Acid. The Absorbance of released p-nitroaniline was read at 405 nm.
International units (IU) are defined as that quantity which reduces the enzymatic hydrolysis of SAAAP with 1 μmol/min at pH 8.3 and 25° C.

[2] = system: Trypsin; test: Trypsin inhibition assay (BAPNA); type: biochemical; conditions: for trypsin inhibition: BAPNA, 37° C.
Experimental: An assay was developed for determination of the activity of this Trypsin inhibitor. In analogy with the elastase inhibition assay the preparation of the solution was as follows:
Trypsin, Type II-S soybean trypsin inhibitor (Sigma T 9128) and BAPNA (Sigma B 3279). This was further optimized to: trypsin solution: 120 μg/ml; BAPNA solution 10 mM; Trypsin inhibitor 100 μg/ml and incubation at 37° C. All other details were equal with the elastase inhibition assay.
(§1) Elastase inhibitory activity of Fahsin was measured by inhibition of the release of the p-nitroanilide group from the synthetic substrate N-succinyl-(Ala) 3-p-nitroanilide (SAAAP) (Calbiochem), catalyzed by pancreatic elastase and human neutrophil elastase respectively. Chymotrypsin inhibition activity of Fahsin was measured by the use of the synthetic substrate S-2586 (Kabi Vitrum). […] of Fahsin was measured by the use of the synthetic substrate S-2238 (Kabi Vitrum). pepsin activity of Fahsin was measured by the use of a haemoglobin substrate. Trypsin inhibition activity was determined using the BAPNA assay. Plasmin inhibition activity of Fahsin was related with the Trypsin inhibition activity and measured by the use of the chromogenic substrate D-Val-Leusyl-Lys-pNA (Othodiagnostics).

[3] = Experimental: Stability of the molecule was tested
a) by boiling it in water at 100° C. for 30 minutes.
b) by immersion in 50% acetic acid at room temperature during one night, and
c) by immersion in 0.1M HCl in the same conditions.
The samples were consequently assayed with the elastase inhibition assay, as were blancs without inhibitor.

[4] = target: plasmin (Homo sapiens, UniProt P00747); test: Plasmin inhibition (chromogenic substrate D-Val-Leusyl-Lys-pNA); type: biochemical
Chain of plasmin (P00747 581-810 limits assumed, species assumed): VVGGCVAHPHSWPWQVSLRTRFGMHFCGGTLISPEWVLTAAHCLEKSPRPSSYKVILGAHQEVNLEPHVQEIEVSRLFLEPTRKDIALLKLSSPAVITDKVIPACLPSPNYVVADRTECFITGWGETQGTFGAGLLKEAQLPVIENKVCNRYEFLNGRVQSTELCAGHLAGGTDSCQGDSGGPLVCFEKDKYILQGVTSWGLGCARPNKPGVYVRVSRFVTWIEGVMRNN
Chain of plasmin (P00747 97-580 partner limits assumed, species assumed): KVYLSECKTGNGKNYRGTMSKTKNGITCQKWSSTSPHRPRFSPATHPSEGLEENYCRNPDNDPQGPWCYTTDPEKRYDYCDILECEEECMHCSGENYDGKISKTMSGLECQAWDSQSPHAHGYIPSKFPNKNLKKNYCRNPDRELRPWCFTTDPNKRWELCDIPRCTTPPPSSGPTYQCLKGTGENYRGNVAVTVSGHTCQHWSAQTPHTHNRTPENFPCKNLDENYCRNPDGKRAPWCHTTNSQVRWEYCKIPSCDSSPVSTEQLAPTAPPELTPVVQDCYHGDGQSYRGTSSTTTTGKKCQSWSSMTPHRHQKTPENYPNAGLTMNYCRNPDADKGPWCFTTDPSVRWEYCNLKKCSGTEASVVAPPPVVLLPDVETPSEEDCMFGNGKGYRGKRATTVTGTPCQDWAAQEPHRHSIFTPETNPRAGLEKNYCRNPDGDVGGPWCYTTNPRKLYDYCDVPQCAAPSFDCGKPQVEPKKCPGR
Experimental: as §1

[5] = target: elastase (Boehringer, 1027891)
[6] = target: elastase (Boehringer, 1027891); remark: listed apart in the source
[7] = target: trypsin

## CC[C@H](NC(=O)[C@H](CCCNC(=N)N)NC(=O)[C@@H](NC(=O)[C@@H]1CCCN1C(=O)[C@@H](NC(C)=O)[C@@H](C)O)[C@@H](C)CC)C(=O)N[C@@H](CC(C)C)C(=O)N[C@H](C(=O)N[C@@H](Cc1ccccc1)C(=O)N[C@@H](CC)C(=O)N1CCC[C@H]1C(=O)N[C@@H](CC(N)=O)C(=O)NCC(=O)N[C@@H](Cc1ccccc1)C(=O)N[C@@H](C)C(=O)N[C@H](C(=O)N[C@@H](CC(=O)O)C(N)=O)C(C)C)[C@@H](C)CC [Synthetic peptide I, N-Acetyl-TPIRAbuLIFAbuPNGFAVD-amide] (Ac-TPIR[Abu]LIF[Abu]PNGFAVD-NH2)
[1]
  inhibition of elastase activity: dose-dependent inhibition of elastase activity
[1]; relative to native molecule
  specific effectivity (elastase inhibition), factor less than the native molecule: ~5,000

## CC[C@H](NC(=O)[C@H](CCCNC(=N)N)NC(=O)[C@@H](NC(=O)[C@@H]1CCCN1C(=O)[C@@H](NC(C)=O)[C@@H](C)O)[C@@H](C)CC)C(=O)N[C@@H](CCCNC(=N)N)C(=O)N[C@H](C(=O)N[C@@H](Cc1ccc(O)cc1)C(=O)N[C@@H](CC)C(=O)N1CCC[C@H]1C(=O)N[C@@H](CCCCN)C(=O)NCC(=O)N[C@@H](Cc1ccccc1)C(=O)N[C@@H](CCC(=O)O)C(=O)N[C@H](C(=O)N[C@@H](CC(=O)O)C(N)=O)C(C)C)[C@@H](C)CC [Synthetic peptide II, N-Acetyl-TPIRAbuRIYAbuPKGFEVD-amide] (Ac-TPIR[Abu]RIY[Abu]PKGFEVD-NH2)
[2]
  trypsin inhibition: dose-dependent inhibition of trypsin activity
[2]; relative to native molecule
  specific effectivity (trypsin inhibition), factor less than the native molecule: ~1,500

## DDNCGGKVCSKGQLCHDGHCECTPIRCLIFCPNGFAVDENGCELPCSCKHQ (cysteine pairing not given here) [peak 8]
[3]; 0.1M HCl at room temperature during one night
  stability: elastase inhibiting activity after treatment: no significant decrease of inhibiting activity
[3]; 50% acetic acid at room temperature during one night
  stability: elastase inhibiting activity after treatment: no significant decrease of inhibiting activity
[3]; boiling in water at 100° C. for 30 minutes
  stability: elastase inhibiting activity after treatment: no significant decrease of inhibiting activity
[1]
  specific (elastase) activity: 1.7 IU/mg
  inhibition of elastase activity: showed inhibition of elastase

## peak 7: single molecule isoform from Limnatis nilotica, 5494.4 D, partial sequence in b92, elastase inhibitor (DDDCGGQVCSKGQLCHDGHCECTPIRCLIYCPNFVDE)
[1]
  specific (elastase) activity: 1.2 IU/mg
  inhibition of elastase activity: showed inhibition of elastase

B1: peak 5: 1:1 mixture of 2 peptides, 5377.2 and 5435.5 Dalton, SEQ ID NO:5 or 6, trypsin inhibitor (protein)
chain 1: DDDCGGQVCSKGQLCVDGQCKCTPIRCRIYCPKGFEVDENGCELPCTCKQ
chain 2: B1 chain 1 with D2G, D3N
[2]; listed as Fahsin T 1-2
  trypsin inhibition: strongly active
[2]; listed as Fraction 5
  trypsin inhibition: strong trypsin inhibition
[2]; ratio to peaks 7, 8 and/or 9
  trypsin inhibitory activity compared with the fractions corresponding to peaks 7, 8 and/or 9: at least twenty times higher
[4]
  inhibition of plasmin: strongly active
[1]
  specific (elastase) activity: less than 0,06 IU/mg
  inhibition of elastase activity: did not show anti-elastase activity

## DDDCGGQVCSKGQLCHDGHCECTPIRCLIYCPNFVDE [FAHSIN E 1]
[5]
  specific (elastase) activity, inhibition of SAAAP hydrolysis: 1.2 IU/mg

B2: peak 9: isoform found to be a mixture of two molecules, 5385.5 and 5454.1 D, partial sequence in b93 (protein)
chain 1: DDDCGGKVCSKGQLCVDGHCECTPIRCLIYCPNGFAVENGC
chain 2: B2 chain 1 with D2G, D3N, K7Q, H19Q, E21K
[1]
  specific (elastase) activity: 0.95 IU/mg
  inhibition of elastase activity: showed inhibition of elastase

B3: Synthetic linear peptide N-Acetyl-TPIRAbuLIFAbuPNGFAVD-amide (I) (peptide)
peptide: Ac-TPIR[Abu]LIF[Abu]PNGFAVD-NH2
SMILES: CC[C@H](NC(=O)[C@H](CCCNC(=N)N)NC(=O)[C@@H](NC(=O)[C@@H]1CCCN1C(=O)[C@@H](NC(C)=O)[C@@H](C)O)[C@@H](C)CC)C(=O)N[C@@H](CC(C)C)C(=O)N[C@H](C(=O)N[C@@H](Cc1ccccc1)C(=O)N[C@@H](CC)C(=O)N1CCC[C@H]1C(=O)N[C@@H](CC(N)=O)C(=O)NCC(=O)N[C@@H](Cc1ccccc1)C(=O)N[C@@H](C)C(=O)N[C@H](C(=O)N[C@@H](CC(=O)O)C(N)=O)C(C)C)[C@@H](C)CC
[6]
  specific effectivity against the native molecule: 5000 factor less

B4: Synthetic linear peptide N-Acetyl-TPIRAbuRIYAbuPKGFEVD-amide (II) (peptide)
peptide: Ac-TPIR[Abu]RIY[Abu]PKGFEVD-NH2
SMILES: CC[C@H](NC(=O)[C@H](CCCNC(=N)N)NC(=O)[C@@H](NC(=O)[C@@H]1CCCN1C(=O)[C@@H](NC(C)=O)[C@@H](C)O)[C@@H](C)CC)C(=O)N[C@@H](CCCNC(=N)N)C(=O)N[C@H](C(=O)N[C@@H](Cc1ccc(O)cc1)C(=O)N[C@@H](CC)C(=O)N1CCC[C@H]1C(=O)N[C@@H](CCCCN)C(=O)NCC(=O)N[C@@H](Cc1ccccc1)C(=O)N[C@@H](CCC(=O)O)C(=O)N[C@H](C(=O)N[C@@H](CC(=O)O)C(N)=O)C(C)C)[C@@H](C)CC
[7]
  specific effectivity against the native molecule: 1500 factor less

— patent publication US6239106A, “Family of protease inhibitors, and other biologic active substances” (Clodica, S.A., priority 1994, dated 2001)
